These are literature values, as cited in publication PMC9428257.

The target of series [1] is APRIL (Homo sapiens) (UniProt O75888).
Series [2] shares this target. This is another data set of the same source.
Another series has as its target BAFF (Homo sapiens) (UniProt Q9Y275).

Values joined by “and” are separate entries in the source; they are usually repeats but may differ in a detail not shown here. Equal values may be shown once. Read-outs that look alike come from different tables or passages of the source.

APRIL (Homo sapiens), sequence (O75888 105-250): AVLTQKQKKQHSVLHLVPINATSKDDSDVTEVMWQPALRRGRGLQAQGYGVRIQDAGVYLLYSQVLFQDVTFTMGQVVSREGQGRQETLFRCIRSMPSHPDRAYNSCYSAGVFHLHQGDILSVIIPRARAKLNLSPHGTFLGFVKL
sBCMA ECD, sequence (Q02223 78-184): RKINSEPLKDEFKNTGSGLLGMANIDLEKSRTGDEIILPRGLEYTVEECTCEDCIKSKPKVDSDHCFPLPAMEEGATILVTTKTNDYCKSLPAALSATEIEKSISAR
sTACI-Fc ECD, sequence (O14836 1-165): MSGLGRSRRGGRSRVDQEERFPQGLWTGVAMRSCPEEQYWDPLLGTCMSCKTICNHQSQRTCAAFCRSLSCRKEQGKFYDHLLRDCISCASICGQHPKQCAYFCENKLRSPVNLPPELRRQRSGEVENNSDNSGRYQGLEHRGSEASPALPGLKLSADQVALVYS
BAFF (Homo sapiens), sequence (Q9Y275 134-285): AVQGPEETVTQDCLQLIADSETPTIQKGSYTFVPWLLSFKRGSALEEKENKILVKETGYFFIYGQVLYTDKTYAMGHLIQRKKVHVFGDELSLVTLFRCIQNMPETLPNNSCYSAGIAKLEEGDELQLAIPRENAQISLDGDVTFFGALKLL

For the substance sBCMA ECD (from UniProt Q02223), the Kd (commonly a measure of binding affinity in units of concentration) in the series with APRIL (Homo sapiens) [1] is 25 pM and 48 pM.
Consider sTACI-Fc ECD (from UniProt O14836), for which the Kd is 6400 pM in the series with APRIL (Homo sapiens) [2] and 160 pM in the series with BAFF (Homo sapiens).
